The values below come from patent publication US20190119389A1 (POTENZA THERAPEUTICS, published 2019).

Assay [1] has as its target T1, recombinant human NRP-1 (human, UniProt O14786 22-856, limits assumed).
T1 construct: also called biotinylated human NRP-1
Nature of the assay: blocking ELISA: human NRP-1 coated, VEGFA added with IgG1 antibody; competitor VEGFA. Background: ELISA stands for enzyme-linked immunosorbent assay.

The target in assay [2] is T2, Human NRP-1 His (human, UniProt O14786 22-856).
T2 construct: Recombinant monomeric protein; Biotinylated in the MSD-SET assay; also called hNRP-1; not shown: His tag
In words: BLI ForteBio, IgG1 N297A on AHQ sensor, 100 nM monomeric antigen, 1:1 fit.
Target sequence in this assay (O14786 22-856 V179A limits assumed): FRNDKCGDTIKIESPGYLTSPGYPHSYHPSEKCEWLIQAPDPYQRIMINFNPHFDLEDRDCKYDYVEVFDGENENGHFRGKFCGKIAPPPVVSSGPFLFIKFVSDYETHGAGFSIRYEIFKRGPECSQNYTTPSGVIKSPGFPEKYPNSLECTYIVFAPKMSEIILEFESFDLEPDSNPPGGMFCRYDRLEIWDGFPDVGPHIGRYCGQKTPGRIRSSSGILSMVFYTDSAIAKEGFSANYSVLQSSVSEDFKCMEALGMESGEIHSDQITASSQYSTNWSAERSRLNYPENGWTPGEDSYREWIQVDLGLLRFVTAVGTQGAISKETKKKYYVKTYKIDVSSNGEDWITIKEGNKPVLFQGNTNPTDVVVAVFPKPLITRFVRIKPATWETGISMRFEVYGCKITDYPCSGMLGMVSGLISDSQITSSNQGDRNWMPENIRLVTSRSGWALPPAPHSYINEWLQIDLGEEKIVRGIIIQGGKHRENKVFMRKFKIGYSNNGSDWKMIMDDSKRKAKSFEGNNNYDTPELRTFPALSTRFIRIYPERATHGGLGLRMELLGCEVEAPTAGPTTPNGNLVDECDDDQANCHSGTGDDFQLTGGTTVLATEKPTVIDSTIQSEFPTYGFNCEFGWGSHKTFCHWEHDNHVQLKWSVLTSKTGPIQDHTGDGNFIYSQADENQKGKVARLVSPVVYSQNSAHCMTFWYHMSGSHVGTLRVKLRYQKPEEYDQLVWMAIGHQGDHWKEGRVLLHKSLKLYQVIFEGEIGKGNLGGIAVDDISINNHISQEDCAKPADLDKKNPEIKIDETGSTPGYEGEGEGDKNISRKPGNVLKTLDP

A further assay addresses T3, Mouse NRP-1 His (mouse, UniProt P97333 22-856).
T3 construct: Recombinant monomeric protein; also called mNRP-1; not shown: His tag
Described as above.

For the next assay, the target named is T4, Cyno NRP-1 His (cynomolgus monkey, UniProt O14786 22-856 (human entry), limits assumed).
T4 construct: Recombinant monomeric protein; also called cynomolgus monkey NRP-1-His; cNRP-1; not shown: His tag
T4 chain: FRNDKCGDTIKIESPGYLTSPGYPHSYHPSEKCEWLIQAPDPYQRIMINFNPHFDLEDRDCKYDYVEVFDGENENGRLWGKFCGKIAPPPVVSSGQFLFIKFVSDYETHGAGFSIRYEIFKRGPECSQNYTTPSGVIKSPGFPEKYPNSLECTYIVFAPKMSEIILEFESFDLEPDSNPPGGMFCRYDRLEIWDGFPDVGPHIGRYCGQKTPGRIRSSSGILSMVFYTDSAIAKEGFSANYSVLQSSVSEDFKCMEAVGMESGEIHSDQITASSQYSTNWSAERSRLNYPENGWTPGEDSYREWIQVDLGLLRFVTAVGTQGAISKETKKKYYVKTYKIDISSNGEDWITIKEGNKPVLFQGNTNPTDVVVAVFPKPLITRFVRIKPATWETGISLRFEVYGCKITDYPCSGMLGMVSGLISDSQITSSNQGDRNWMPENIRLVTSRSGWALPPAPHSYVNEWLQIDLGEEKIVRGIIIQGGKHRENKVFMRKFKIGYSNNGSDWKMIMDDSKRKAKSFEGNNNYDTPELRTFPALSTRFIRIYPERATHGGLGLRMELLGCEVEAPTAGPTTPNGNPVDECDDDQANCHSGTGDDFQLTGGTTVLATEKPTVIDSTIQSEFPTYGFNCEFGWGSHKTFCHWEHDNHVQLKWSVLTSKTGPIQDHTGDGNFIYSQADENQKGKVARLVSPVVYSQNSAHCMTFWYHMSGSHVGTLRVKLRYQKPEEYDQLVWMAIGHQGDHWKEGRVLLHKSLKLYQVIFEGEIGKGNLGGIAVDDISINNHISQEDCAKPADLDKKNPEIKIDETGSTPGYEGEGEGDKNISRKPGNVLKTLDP
Described as above.

The target in assay [3] is T1, recombinant human NRP-1. Nature of the assay: blocking ELISA: SEMA3A coated, biotinylated human NRP-1 preincubated with IgG1 antibody; competitor SEMA3A.
Assay [4] deals with T2, Human NRP-1 His. In words: MSD-SET solution equilibrium titration, Fab.

Usually IC50 stands for the concentration that inhibits the measured activity by half. A word on the Kd: it is the equilibrium constant for the complex coming apart.

T1 sequence (O14786 22-856 V179A limits assumed): as the sequence (O14786 22-856 V179A limits assumed) above
T3 sequence (P97333 22-856 limits assumed): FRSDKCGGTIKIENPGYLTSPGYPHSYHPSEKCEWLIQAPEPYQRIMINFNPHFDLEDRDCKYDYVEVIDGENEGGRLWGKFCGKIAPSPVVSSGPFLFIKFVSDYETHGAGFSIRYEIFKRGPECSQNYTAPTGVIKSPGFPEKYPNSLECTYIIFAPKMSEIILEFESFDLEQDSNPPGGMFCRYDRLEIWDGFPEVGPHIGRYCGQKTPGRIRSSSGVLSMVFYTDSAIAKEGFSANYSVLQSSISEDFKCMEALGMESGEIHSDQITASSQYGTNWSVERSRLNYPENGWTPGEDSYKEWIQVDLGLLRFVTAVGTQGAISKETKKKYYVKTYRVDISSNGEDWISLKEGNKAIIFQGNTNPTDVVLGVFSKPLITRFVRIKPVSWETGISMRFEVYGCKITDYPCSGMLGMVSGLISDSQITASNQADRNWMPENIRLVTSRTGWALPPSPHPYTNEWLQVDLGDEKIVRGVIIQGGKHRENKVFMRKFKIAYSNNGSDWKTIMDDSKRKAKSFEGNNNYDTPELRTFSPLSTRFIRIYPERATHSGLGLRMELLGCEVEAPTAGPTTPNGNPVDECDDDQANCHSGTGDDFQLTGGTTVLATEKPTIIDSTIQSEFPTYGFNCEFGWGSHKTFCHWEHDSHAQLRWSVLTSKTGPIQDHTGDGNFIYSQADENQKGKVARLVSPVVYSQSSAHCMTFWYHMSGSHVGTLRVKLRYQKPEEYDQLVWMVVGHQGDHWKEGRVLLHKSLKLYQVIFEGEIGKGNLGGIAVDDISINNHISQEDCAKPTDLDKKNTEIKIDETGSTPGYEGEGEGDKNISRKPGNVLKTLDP

B1: MAB7 (antibody, V domains shown)
VH: EVQLVESGGGLVQPGGSLRLSCAASGFTFSSYWMEWVRQAPGKGLEWVARIKRDGSEKYYVDSVKGRFTISRDNAKNSLYLQMNSLRAEDTAVYYCARDQGYKTPTDFDLWGRGTLVTVSS
VL: DIQMTQSPSSLSASVGDRVTITCQASQDITNYLNWYQQKPGKAPKLLIYDASNLETGVPSRFSGSGSGTDFTFTISSLQPEDIATYYCQQSDVLPITFGGGTKVEIK
Take B1: the concentration for half-maximal inhibition (IC50) was determined as 6900 pM with recombinant human NRP-1 [1] and 1700 pM in the assay with recombinant human NRP-1 [3]. In addition, the equilibrium dissociation constant (Kd) with Human NRP-1 His [2] was found to be 11200 pM; with Mouse NRP-1 His it was 14700 pM; with Cyno NRP-1 His, 10900 pM.

B2: MAB15 Fab (Fab, V domains shown)
VH: QVQLQQWGAGLLKPSETLSLTCAVYGGSFVKYYWSWIRQPPGKGLEWIGDIWHSGMTNYNPSLKSRVTISVDTSKNQFSLKLSSVTAADTAVYYCARGPGYDSSGYSRRFDPWGQGTLVTVSS
VL: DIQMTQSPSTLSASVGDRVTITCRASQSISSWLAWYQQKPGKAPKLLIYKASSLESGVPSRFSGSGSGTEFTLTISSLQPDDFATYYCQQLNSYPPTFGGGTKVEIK
In the assay with Human NRP-1 His [4], B2 had a Kd of 180 pM.

B3: MAB10 (antibody, V domains shown)
VH: EVQLLESGGGLVQPGGSLRLSCAASGFTFSSVAMVWVRQAPGKGLEWVSAISGSGGATYYADSVKGRFTISRDNSKNTLYLQMNSLRAEDTAVYYCAKDPGYDSSRYYYSNYGMDVWGQGTTVTVSS
VL: DIQMTQSPSSLSASVGDRVTITCRASQSISSYLNWYQQKPGKAPKLLIYGASSLQSGVPSRFSGSGSGTDFTLTISSLQPEDFATYYCQQTYSLYTFGGGTKVEIK
For B3, the concentration for half-maximal inhibition (IC50) in the assay with recombinant human NRP-1 [1] was determined as 6700 pM; with recombinant human NRP-1 [3] it was 1500 pM. Also, the dissociation constant (Kd) was determined as 868 pM in the assay with Human NRP-1 His [2], 746 pM with Mouse NRP-1 His and 866 pM in the assay with Cyno NRP-1 His.

B4: MAB10 Fab (Fab, V domains shown)
VH: EVQLLESGGGLVQPGGSLRLSCAASGFTFSSVAMVWVRQAPGKGLEWVSAISGSGGATYYADSVKGRFTISRDNSKNTLYLQMNSLRAEDTAVYYCAKDPGYDSSRYYYSNYGMDVWGQGTTVTVSS
VL: DIQMTQSPSSLSASVGDRVTITCRASQSISSYLNWYQQKPGKAPKLLIYGASSLQSGVPSRFSGSGSGTDFTLTISSLQPEDFATYYCQQTYSLYTFGGGTKVEIK
Regarding B4, the dissociation constant (Kd) with Human NRP-1 His [4] is 64 pM.

B5: MAB9 (antibody, V domains shown)
VH: EVQLLESGGGLVQPGGSLRLSCAASGFTFKSYAMVWVRQAPGKGLEWVSIISGSGGATYYADSVKGRFTISRDNSKNTLYLQMNSLRAEDTAVYYCAKDPGYDSSRYYYSNYGMDVWGQGTTVTVSS
VL: DIQMTQSPSSLSASVGDRVTITCRASQSISSYLNWYQQKPGKAPKLLIYGASSLQSGVPSRFSGSGSGTDFTLTISSLQPEDFATYYCQQTYSLYTFGGGTKVEIK
As to B5, the IC50 with recombinant human NRP-1 [1] came to 6500 pM; in the assay with recombinant human NRP-1 [3], 1800 pM. The Kd with Human NRP-1 His [2] came out at 645 pM; with Mouse NRP-1 His, 566 pM; with Cyno NRP-1 His it was 643 pM.

B6: MAB8 (antibody, V domains shown)
VH: EVQLLESGGGLVQPGGSLRLSCAASGFTFASYAMVWVRQAPGKGLEWVSIISGSGGSTYYADSVKGRFTISRDNSKNTLYLQMNSLRAEDTAVYYCAKDPGYDSSRYYYSNYGMDVWGQGTTVTVSS
VL: DIQMTQSPSSLSASVGDRVTITCRASQSISSYLNWYQQKPGKAPKLLIYGASSLQSGVPSRFSGSGSGTDFTLTISSLQPEDFATYYCQQTYSLYTFGGGTKVEIK
Turning to B6, the IC50 in the assay with recombinant human NRP-1 [1] is 7300 pM; with recombinant human NRP-1 [3], 2000 pM. Moreover, the figures for the dissociation constant Kd in the assay with Human NRP-1 His [2], with Mouse NRP-1 His and with Cyno NRP-1 His were 613 pM, 552 pM and 642 pM, respectively.

B7: MAB11 (antibody, V domains shown)
VH: EVQLLESGGGLVQPGGSLRLSCAASGFTFSSVAMVWVRQAPGKGLEWVSAISGSGGATYYADSVEGRFTISRDNSKNTLYLQMSSLRAEDTAVYYCAKDPGYDSSRYYYSNYGMDVWGQGTTVTVSS
VL: DIQMTQSPSSLSASVGDRVTITCRASQSISSYLNWYQQKPGKAPKLLIYGASSLQSGVPSRFSGSGSGTDFTLTISSLQPEDFATYYCQQTYSLYTFGGGTKVEIK
With B7, the half-maximal inhibitory concentration (IC50) was determined as 5900 pM in the assay with recombinant human NRP-1 [1] and 800 pM with recombinant human NRP-1 [3]. For the same molecule, the Kd turned out to be 485 pM in the assay with Human NRP-1 His [2], 446 pM in the assay with Mouse NRP-1 His and 480 pM with Cyno NRP-1 His.

B8: MAB14 Fab (Fab, V domains shown)
VH: QVQLQQWGAGLLKPSETLSLTCAVYGGSFRGYYWEWSRQPPGKGLEWIGEISHSGSTNYNPSLKSRVTISVDTSKNQFSLKLSPVTAADTAVYYCARARPYREPYGMDVWGQGTTVTVSS
VL: DIQLTQSPSSVSASVGDRVTITCRASQDISSWLAWYQQKPGKAPKLLIYAASSLQSGVPSRFSGSGSGTDFTLTISSLQPEDFATYYCQQELAFPRTFGGGTKVEIK
The molecule B8 returned an equilibrium dissociation constant (Kd) in the assay with Human NRP-1 His [4] of 280 pM.

B9: MAB1 Fab (Fab, V domains shown)
VH: QVQLVQSGAGVKKPGASVKVSCKASGYTFRSYYMLWVRQAPGQGLEWMGIIDPSDGSTSYAQKFQGRVTMTRDTPTSTVYMELSSLRSEDTAVYYCARGARRITGYGMDVWGQGTTVTVSS
VL: DIQMTQSPSSVSASVGDRVTITCRASQGISSWLAWYQQKPGKAPKLLIYAASNLQSGVPSRFSGSGSGTDFTLTISSLQPEDFATYYCQQASVFPFTFGGGTKVEIK
Consider B9, for which the Kd with Human NRP-1 His [4] was determined as 320 pM.

B10: MAB13 Fab (Fab, V domains shown)
VH: QVQLQQWGAGLLKPSETLSLTCAVYGGSFRGYYWEWIRQPPGKGLEWIGEISHSGSTNYNPSLKSRVTISVDTSKNQFSLKLSSVTAADTAVYYCARARPYREPYGMDVWGQGTTVTVSS
VL: DIQLTQSPSSVSASVGDRVTITCRASQDISSWLAWYQQKPGKAPKLLIYAASSLQSGVPSRFSGSGSGTDFTLTISSLQPEDFATYYCQQELAFPRTFGGGTKVEIK
B10: in the assay with Human NRP-1 His [4], binding was characterised by a dissociation constant (Kd) of 540 pM.

B11: MAB3 Fab (Fab, V domains shown)
VH: QAQLVQSGAEVKKPGASVKVSCKASGYTFSRYYMHWVRQAPGQGLEWMGIINPLGGSTLYAQKFQGRVTMTRDTSTSTVYMELSSLRSEDTAVYYCARDLGYYGSGMHAWGQGTLVTVSS
VL: DIQMTQSPSSVSASVGDRVTITCRASQGISRWLAWYQQKPGKAPKLLIYAASSLQSGVPSRFSGSGSGTDFTLTISSLQPEDFATYYCQQANLLPFTFGGGTKVEIK
In turn, B11 displayed a Kd with Human NRP-1 His [4] of 60 pM.

B12: MAB6 (antibody, V domains shown)
VH: QVQLVQSGAKVKKPGASVKVSCKASGYTFTSYYMHWVRQVPGQGLEWMGIINPQGGDTSYAQKFQGRVTMTRDTSTSTVYMELSSLRSEDTAVYYCARDRGMYYASGFNPWGQGTLVTVSS
VL: EIVMTQSPGTLSLSPGERATLSCRASQSVSSSYLAWYQQKPGQAPRLLIYGASNRATGIPDRFSGSGSGTDFTLTISRLEPEDFAVYYCQQLSSFPITFGGGTKVEIK
In the case of B12, the concentration for half-maximal inhibition (IC50) worked out at 7400 pM with recombinant human NRP-1 [1] and 1800 pM in the assay with recombinant human NRP-1 [3]. The Kd in the assay with Human NRP-1 His [2] was 4720 pM; in the assay with Mouse NRP-1 His, 6980 pM; with Cyno NRP-1 His, 5540 pM.

B13: MAB5 Fab (Fab, V domains shown)
VH: QVQLVQSGAEVKKPGASVKVSCKASGYTFTSYYMHWVRQAPGQGLEWMGIINPQGGDTSYAQKFQGRVTMTRDTSTSTVYMELSSLRSEDTAVYYCARDRGMYYASGFGPWGQGTLVTVSS
VL: EIVMTQSPGTLSLSPGERATLSCRASQSVSSSYLAWYQQKPGQAPRLLIYGASNRATGIPDRFSGSGSGTDFTLTISRLEPEDFAVYYCQQLSSFPITFGGGTKVEIK
B13 showed a Kd with Human NRP-1 His [4] of 280 pM.

B14: MAB6 Fab (Fab, V domains shown)
VH: QVQLVQSGAKVKKPGASVKVSCKASGYTFTSYYMHWVRQVPGQGLEWMGIINPQGGDTSYAQKFQGRVTMTRDTSTSTVYMELSSLRSEDTAVYYCARDRGMYYASGFNPWGQGTLVTVSS
VL: EIVMTQSPGTLSLSPGERATLSCRASQSVSSSYLAWYQQKPGQAPRLLIYGASNRATGIPDRFSGSGSGTDFTLTISRLEPEDFAVYYCQQLSSFPITFGGGTKVEIK
Molecule B14 had a dissociation constant Kd with Human NRP-1 His [4] of 450 pM.
